Measurements: article PMC4512625, “Critical role of the SPAK protein kinase CCT domain in controlling blood pressure” (Human Molecular Genetics, 2015)

Target: T1, Lumio-Green-labelled RFXV-motif-possessing peptide derived from WNK4 (EP4543) (not fully specified; Lumio Green fluorophore conjugated to the N-terminal linker CCPGCCGGGG)
T1 construct: N-terminal linker required for conjugating to the Lumio Green fluorophore; stretch of WNK4 with the RFQV motif; also called WNK peptide; RFXV peptide; source: synthetic peptide (GL Biochem)
T1 peptide: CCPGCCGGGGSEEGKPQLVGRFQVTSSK
Experiment: fluorescence polarisation; SPAK protein titrated against 10 nM Lumio-Green-labelled peptide; 25°C; 50 mM Tris-HCl pH 7.5, 150 mM NaCl, 2 mM DTT; one-site-specific binding model
Details: both partners purified

B1: human SPAK 452-547 with L491A (domain or fragment)
chain: not shown
notes: SPAK, human, residues 452-547 (end), the CCT domain, L491A; pGEX-6P-1 construct; GST-SPAK proteins were eluted with 20 mM glutathione and no cleavage of GST is described, so GST was probably still on the protein; also called SPAK CCT domain L491A (equivalent to L502 in mouse); source: E. coli BL21, purified (glutathione-Sepharose)
- fold reduction of binding against wild-type SPAK 452-547: ~100 fold
